The values below come from US9340577B2, “HLA binding motifs and peptides and their uses” (priority 1992, dated 2016).

Assay [1] concerns the target A2.1 HLA molecules (Homo sapiens, UniProt P04439, D140Y/D185E/D98H/E176V/E277Q/G131W/G231S/I119V/I121R/I166T/I218V/L300P/L318F/N151K/N90K/P208A/P217A/Q86G/Q94H/R138H/R169H/T345S). The assay is classed as binding. Further details: A*0201 / A2.1 Binding / A2 Bind. / A2 / A2.1 (binding capacity): scale not given here.
Assay [2] has as its target HLA-A*0201 (HLA-A2.1) (Homo sapiens, UniProt P04439, D140Y/D185E/D98H/E176V/E277Q/G131W/G231S/I119V/I121R/I166T/I218V/L300P/L318F/N151K/N90K/P208A/P217A/Q86G/Q94H/R138H/R169H/T345S). Briefly: biochemical. Format: binding.

Where “and” joins values, the source holds several entries; their conditions need not be identical. Equal values may be shown once.

For the substance SLISDQLLM, in assay [1], the “A2 Bind.” value turned out to be 0.0540.
On to WMWFPSVLL, for which, in assay [1], the “A2 Bind.” value is on record as 0.0360 and the “A2.1 Binding” value is 0.036.
As for RLPDRVHFA, the “A2 Bind.” value in assay [1] is reported as 0.0940.
As for TLNIVRDHV, the “A2.1 Binding” value in assay [1] worked out at 0.0005.
In turn, GLLGCIITSL gave an A2 in assay [1] of 0.0610.
For the substance SLRIKRELL, the “A2.1 Binding” value in assay [1] is recorded as 0.
Turning to LLALLSCLTV [Peptide F127.03], in assay [1], the “A*0201” value came to 0.0240.
For IISAVVGILL, the “A2 Bind.” value in assay [1] is 0.0120.
In the case of AMLTACVEV, in assay [1], the “A2 Bind.” value amounted to 0.1000 and the “A2.1 Binding” value is given as 0.089.
As for LMLQAGFFLV, the “A2.1 relative binding (ratio of binding of test peptide relative to standard peptide)” value in assay [1] stood at 0.63.
For YLQLVFGIEV, the “binding to HLA-A2.1 (column 3; no allele head shown for these rows)” value in assay [2] amounted to 0.37. For the same substance, in assay [1], the “A2 Bind.” value is 0.3700.
For LVPFVQWFA, the “A2.1 relative binding (ratio of binding of test peptide relative to standard peptide)” value in assay [1] was 0.0031.
For YLYRLNFCL, in assay [1], the “A2 Bind.” value was found to be 0.7200 and the “A2.1 Binding” value stood at 0.72.
RLGRNSFEV: in assay [1], the “A2 Bind.” value was 0.0190.
Regarding GMLPVCPLI, the “A2 Bind.” value in assay [1] is 0.0520.
Regarding FLRVQQKAL, the “A2.1 Binding” value in assay [1] was 0.0002.
Take FLLAQFTSA: in assay [1], the A2 turned out to be 0.6600 and the “A2 Bind.” value is 0.6600.
Regarding RLTGGVFLV, the “A2.1 relative binding (ratio of binding of test peptide relative to standard peptide)” value in assay [1] was 0.14 and 0.16.
For the substance SISGVLWQV [Peptide F124.09], the “A*0201” value in assay [1] came to 0.1400.
Take LLWKGEGAVV: the A2 in assay [1] came to 0.0360.
As for FLGLSPTVWV, the “A2 Bind.” value in assay [1] amounted to 0.0300.
Consider KLVALGVNAV [Peptide F124.12], for which, in assay [1], the “A*0201” value was determined as 0.0200.
On to LMDLLMFST, for which the “A2 Bind.” value in assay [1] turned out to be 0.0460.
Turning to SMLSPFLPLV, in assay [1], the “A2.1 relative binding (ratio of binding of test peptide relative to standard peptide)” value came to 0.97.
As to AMSFTFTTL, the “A2.1 Binding” value in assay [1] amounted to 0.0005.
Consider SLDSWWTSV, for which the “A2 Bind.” value in assay [1] was 0.1000.
Regarding LLGRRSFEV, the “A2 Bind.” value in assay [1] is 0.0540.
Take 1.0187 (HLLVGSSBL) [Peptide 1.0187]: the “A2.1 Binding” value in assay [1] is recorded as 0.0018.
Regarding LLLYYDYSL, in assay [1], the “A2 Bind.” value came to 0.2800 and the “A2.1 Binding” value came to 0.28.
On the same counts, the results for GLWCVLFFV are 0.4700 and 0.47.
Regarding GLCQVFADV, the “A2 Bind.” value in assay [1] was determined as 0.0300.
Consider LLGDNQIMP, for which, in assay [2], the “binding to HLA-A2.1 (column 3; no allele head shown for these rows)” value was 0.0001. In addition, the “A2.1 relative binding (ratio of binding of test peptide relative to standard peptide)” value in assay [1] is reported as 0.0001.
On to YLCCGITLL, for which, in assay [1], the “A2 Bind.” value is recorded as 0.0210 and the “A2.1 Binding” value was found to be 0.021.
In the case of WEELSVMEV, the “binding to HLA-A2.1 (column 3; no allele head shown for these rows)” value in assay [2] amounted to 0. Moreover, the “A2.1 relative binding (ratio of binding of test peptide relative to standard peptide)” value in assay [1] was found to be 0.
Take ALAETSYVKVL: the “binding to HLA-A2.1 (column 3; no allele head shown for these rows)” value in assay [2] stood at 0.012. Also, in assay [1], the “A2 Bind.” value turned out to be 0.0120.
For the substance LIISCSCPTV, the “A2 Bind.” value in assay [1] was 0.0290.
For ELKKVSVL, in assay [1], the “A2.1 Binding” value was 0.
Take YMFLWGPRV: the “binding to HLA-A2.1 (column 3; no allele head shown for these rows)” value in assay [2] is 0.22. For the same substance, the “A2 Bind.” value in assay [1] came out at 0.2200.
For QLNAMKPDL, in assay [1], the “A2.1 Binding” value stood at 0.0001.
Consider TMELMIRTV, for which the “A2.1 Binding” value in assay [1] amounted to 0.0029.
As for VMIAMEGGHV, the “binding to HLA-A2.1 (column 3; no allele head shown for these rows)” value in assay [2] was 0.053. Moreover, the “A2 Bind.” value in assay [1] is reported as 0.0530.
With YLLDLQEPV, in assay [1], the “A2 Bind.” value stood at 0.2200.
On to WMELSVMEV, for which the “binding to HLA-A2.1 (column 3; no allele head shown for these rows)” value in assay [2] is recorded as 0.041. Also, the “A2 Bind.” value in assay [1] is given as 0.0410.
LMCRYTPRL: the “A2.1 Binding” value in assay [1] came out at 0.0055.
RLQPNVPLV: in assay [1], the “A2 Bind.” value worked out at 0.0480 and the “A2.1 Binding” value is reported as 0.048.
On to 1.0876 (FLCILLLCL) [Peptide 1.0876], for which the “A2.1 Binding” value in assay [1] was 0.0007.
For LLPFVQWFV, the “A2.1 relative binding (ratio of binding of test peptide relative to standard peptide)” value in assay [1] is given as 0.63.
On to ILGFVFTLT, for which, in assay [1], the “A2 Bind.” value is given as 0.2600.
In the case of ALSLIVNLL, in assay [1], the “A2 Bind.” value came out at 0.0470.
Take LLGRNSFAV: the “A2 Bind.” value in assay [1] worked out at 0.0420.
GLRQLKGAL: the “A2.1 Binding” value in assay [1] is 0.0001.
As to YLHTLWKAGV [listing 1 of 2 here], the “A2.1 relative binding (ratio of binding of test peptide relative to standard peptide)” value in assay [1] amounted to 0.15.
Turning to AMSRNLFRV, in assay [1], the “A2 Bind.” value was 0.1500 and the “A2.1 Binding” value was found to be 0.15.
YLHTLWKAGV [listing 2 of 2 here]: in assay [1], the A2 came to 0.1300 and the “A2 Bind.” value is 0.1500.
As for VTTEVAFGL, the “A2 Bind.” value in assay [1] amounted to 0.0360.
With TLMSIVSSL, the “A2 Bind.” value in assay [1] is given as 0.2000.
In the case of TISGVLWQV [Peptide F124.08], the “A*0201” value in assay [1] amounted to 0.1400.
